{
  "source": "paper doi:10.1101/2025.09.09.675266",
  "key": {"[1]": {"target": "RSV IN (1-269) (Rous sarcoma virus (Prague A))", "test": "SEC"}, "[2]": {"target": "RSV IN (1-278 aa) (Rous sarcoma virus (Prague A))"}, "[3]": {"target": "RSV IN (1-278 aa) (Rous sarcoma virus (Prague A))", "test": "SEC"}},
  "note": "Values joined by “and” are separate entries in the source; they are usually repeats but may differ in a detail not shown here. Equal entries are not always repeated. Where two headings read alike, the source gives them in different places.",
  "data": [
    {"substance": "RSV IN (1-269) (domain or fragment)", "values": [
      {"measurement": "stoichiometry N", "setting": "[1]", "value": 4}
    ]},
    {"substance": "RSV IN (1-278 aa) (domain or fragment)", "values": [
      {"measurement": "stoichiometry N", "setting": "[2]", "value": 2},
      {"measurement": "stoichiometry N", "setting": "[3]", "value": "4 and 8"}
    ]}
  ]
}
